Like-named read-outs stand apart in the source and are kept apart here.
Experiments:
[1] = target: cellular fibronectin (human); assay: MST; RED-NHS labeled cFn at 50 nM mixed with 16 concentrations (92 pM-3 uM) of the unlabeled protein; 637 mM NaCl, 2.7 mM KCl, 10 mM Na2HPO4, 1.8 mM KH2PO4, pH 7.4; 22-23°C; Monolith NT.115, MST power 40%, excitation 20%; triplicate; single-site dose-response model
[2] = target: cellular fibronectin (human); assay: as above; remark: listed apart in the source
[3] = target: the molecule itself; assay: crystal structure; dimeric SEC fraction of C-terminally His-tagged CshB_NR2; sitting drop, 20°C, 0.1 M SPG buffer pH 5, 25% w/v PEG 1500; molecular replacement with 5L2D; 1.4 Å

CshB_NR2 (NR2 domain of CshB), N-terminally hexa-histidine-tagged variant (from UniProt A8AXC5 211-528) (domain or fragment)
Kd [1]: 530 nM

B1: CshA_NR2 (NR2 domain of cell surface hydrophobicity protein A), wild type (domain or fragment)
chain: WVDFSDTASMKNLDPQGGFKVGTVFKKEISPGYVVTLTVTELKPFNSTEIYKKRVEGTPTANTYDPNAINSYLKGYKDYGKTPPSVTGRPQNKFSTIGGQGFDTQGRKTQIILPDDAVNWGIKFKVEATYRGNPVKPSVVMADGEDANPAEYGIFTTNGEGWEYVGEWMKGPRAKGPYTVMTEDMVKAFDKTRKDGLLILKDKSVDWSKYLSPDTVTGGLGSQVFGPIISASKAVPVVMTRGASEVGFYVATGGQQALMMGFLVVDSSDAPASYGEAYHTIGTRDSIANTPINQPYLGSTAADIDADSESDWTADDRE
Kd [2]: 302 nM

B2: CshB_NR2 (NR2 domain of CshB), C-terminally hexa-histidine-tagged variant, dimeric form (domain or fragment)
chain: WLDFSDSASWKNLDQRGGLKVGTTFTKEISPGYVVTLTVKELKPFNSTEIYKKRVAGTATEGTYNPDAENGFLTSAPYYGKTPPPSVTGAAQNEWTTIRDQGFNTQKRKTQLVYPMNSTNWGVKFDIEATYLGKRVAPTVVMADGEDANPGEFAIFTTNGTGWEYMGEWKMKSPAKEAYTVITKKMLDDEDVKRRGLLILKDKSVDWYKYLSPDTVTGGLGSQVFGPNRSNERTVPVVMTRGASEVGFYVASSGQQAMMMGFLVVDVSDAPESYGEAFHTISTRDSVTNDPINQPYLGTTPADIDVESSNDWVLDDKK
notes: CshB, Streptococcus gordonii DL1, NR2 domain, residues 211-528 of the full-length CshB polypeptide; amplified from chromosomal DNA, in pOPINE; Used for crystallization; Only the dimeric SEC fraction crystallised
stoichiometry N [3]: 2

Source: article PMC10952558, “Domain shuffling of a highly mutable ligand‐binding fold drives adhesin generation across the bacterial kingdom” (Proteins, 2023)
